B1: humanized antibody molecule HA-I-C (antibody, human IgG1, kappa, L234A L235A, V domains shown)
VH: QVQLVESGGGLVKPGGSLRLSCAASGFTFSDYYMFWVRQAPGKGLEWVATISDGGTYTYYPDSVKGRFTISRDNAKNSLYLQMNSLRAEDTAVYYCARDGGYVSSPEAMDYWGQGTLVTVSS
VL: DIVLTQSPSSLSASVGDRVTITCRASQDISNYLNWYQQKPGKAVKLLIYYTSRLHSGVPSRFSGSGSGTDYTFTISSLQPEDIATYFCQQGNTLPPTFGGGTKVEIKR
B2: humanized antibody molecule HA-I-B (antibody, human IgG1, kappa, L234A L235A, V domains shown)
VH: B1 VH with A49S
VL: B1 VL with V44P, F87Y
B3: humanized antibody molecule HA-I-D (antibody, human IgG1, kappa, L234A L235A, V domains shown)
VH: B1 VH with V93M, L117S
VL: B1 VL with K42G
B4: humanized antibody molecule HA-I-A (antibody, human IgG1, kappa, L234A L235A, V domains shown)
VH: B1 VH
VL: B1 VL with V44P, Y71F, F87Y
notes: anti-IL-11 monoclonal antibody HA-I-A
B5: murine antibody molecule MA-I (mouse IgG1 / mouse Ckappa) (antibody)
heavy: EVKLEESGGGLVKPGGSLKLSCAASGFTFSDYYMFWVRQTPEKRLEWVATISDGGTYTYYPDSVKGRFTISRDNAKNNLYLQMTSLKSEDTAMYYCARDGGYVSSPEAMDYWGQGTSVTVSSAKTTPPSVYPLAPGSAAQTNSMVTLGCLVKGYFPEPVTVTWNSGSLSSGVHTFPAVLQSDLYTLSSSVTVPSSTWPSETVTCNVAHPASSTKVDKKIVPRDCGCKPCICTVPEVSSVFIFPPKPKDVLTITLTPKVTCVVVDISKDDPEVQFSWFVDDVEVHTAQTQPREEQFNSTFRSVSELPIMHQDWLNGKEFKCRVNSAAFPAPIEKTISKTKGRPKAPQVYTIPPPKEQMAKDKVSLTCMITDFFPEDITVEWQWNGQPAENYKNTQPIMDTDGSYFVYSKLNVQKSNWEAGNTFTCSVLHEGLHNHHTEKSLSHSPG
light: DIVLTQSTSSLSASLGDRVTISCRASQDISNYLNWYQQKPDGTVKLLIYYTSRLHSGVPSRFSGSGSGTDYSLTISNLEQEDIATYFCQQGNTLPPTFGGGTKLEIKADAAPTVSIFPPSSEQLTSGGASVVCFLNNFYPKDINVKWKIDGSERQNGVLNSWTDQDSKDSTYSMSSTLTLTKDEYERHNSYTCEATHKTSTSPIVKSFNRNEC
notes: also called murine anti-IL-11 monoclonal antibody MA-I
B6: murine antibody molecule MA-IV (mouse IgG1 / mouse Ckappa) (antibody, V domains shown)
VH: EVQLEESGGGLVKPGGSLKLSCVASGFTFSDYYMFWVRQTPEKRLEWVATISDGGSYSYYPDSVKGRFTISRDNAKNNLYLQMSSLRSEDTAMYYCARDGGYISSPEAMDYWGQGTSVTVSS
VL: DIVLTQSTSSLSASLGDRVTISCRASQDISNYLNWYQQKPDGTVKLLIYYTSRLHSGVPSRFSGSGSGTDYSLTISNLEQEDIATYFCQQGNTLPPTFGGGTKLEIKA
notes: also called murine anti-IL-11 monoclonal antibody MA-IV
B7: murine antibody molecule MA-II (mouse IgG1 / mouse Ckappa) (antibody)
heavy: B5 heavy
light: B5 light with P96W
notes: also called murine anti-IL-11 monoclonal antibody MA-II
B8: murine antibody molecule MA-III (mouse IgG1 / mouse Ckappa) (antibody, V domains shown)
VH: EVKLEQSGAEVVKPGALVKMSCKASGYTFTSYWMHWVKQRPGQGLEWIGVIDPSDSYTTYNQKFKGKATLTVDTSSSTGYMQLSSLTSEDSAVYYCSQYGYDVNWYFDVWGAGTTVTVSS
VL: DIVMTQTTLSLPVSLGDQASISCRSSQSIVHSNGNTYLEWYLQKPGQSPKLLIYEVSNRFSGVPDRFSGSGSGTDFTLKISRVEAEDLGVYYCFQGSHVPWTFGGGTKLEIKA
notes: also called murine anti-IL-11 monoclonal antibody MA-III
B9: chimeric antibody CA-I (antibody, human IgG1, kappa, L234A L235A)
heavy: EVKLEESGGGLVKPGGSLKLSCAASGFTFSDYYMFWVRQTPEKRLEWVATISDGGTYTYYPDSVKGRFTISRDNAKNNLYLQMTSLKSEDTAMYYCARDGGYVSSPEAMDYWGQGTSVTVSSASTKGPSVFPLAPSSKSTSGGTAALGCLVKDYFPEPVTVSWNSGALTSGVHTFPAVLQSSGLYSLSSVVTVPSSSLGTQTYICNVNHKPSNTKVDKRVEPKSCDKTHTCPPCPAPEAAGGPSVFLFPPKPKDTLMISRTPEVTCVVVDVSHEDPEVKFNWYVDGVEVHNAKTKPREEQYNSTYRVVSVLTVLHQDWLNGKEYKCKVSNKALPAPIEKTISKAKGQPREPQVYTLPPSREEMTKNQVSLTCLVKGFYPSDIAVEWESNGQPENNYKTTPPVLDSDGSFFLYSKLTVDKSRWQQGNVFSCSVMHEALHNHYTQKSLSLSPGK
light: DIVLTQSTSSLSASLGDRVTISCRASQDISNYLNWYQQKPDGTVKLLIYYTSRLHSGVPSRFSGSGSGTDYSLTISNLEQEDIATYFCQQGNTLPPTFGGGTKLEIKRTVAAPSVFIFPPSDEQLKSGTASVVCLLNNFYPREAKVQWKVDNALQSGNSQESVTEQDSKDSTYSLSSTLTLSKADYEKHKVYACEVTHQGLSSPVTKSFNRGEC
notes: Variable regions of MA-I on human IgG1 and human Ckappa constant regions
B10: chimeric antibody CA-II (antibody, human IgG1, kappa, L234A L235A)
heavy: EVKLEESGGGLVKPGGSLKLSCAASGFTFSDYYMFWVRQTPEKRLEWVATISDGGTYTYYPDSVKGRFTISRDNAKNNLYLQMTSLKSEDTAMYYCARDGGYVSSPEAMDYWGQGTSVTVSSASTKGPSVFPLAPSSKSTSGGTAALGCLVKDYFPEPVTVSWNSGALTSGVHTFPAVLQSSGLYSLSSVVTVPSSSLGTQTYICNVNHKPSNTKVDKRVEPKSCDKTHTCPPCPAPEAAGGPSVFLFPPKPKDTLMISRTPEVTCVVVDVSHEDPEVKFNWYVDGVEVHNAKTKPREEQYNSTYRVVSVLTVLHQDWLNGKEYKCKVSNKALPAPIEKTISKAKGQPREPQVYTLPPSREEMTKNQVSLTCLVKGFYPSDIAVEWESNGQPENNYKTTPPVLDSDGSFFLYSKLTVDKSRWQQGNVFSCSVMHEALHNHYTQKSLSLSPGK
light: B9 light with P96W
notes: Variable regions of MA-II on human IgG1 and human Ckappa constant regions
B11: humanized antibody molecule HA-II-B (antibody, human IgG1, kappa, L234A L235A, V domains shown)
VH: B1 VH
VL: B1 VL with V44P, F87Y, P96W
B12: humanized antibody molecule HA-II-C (antibody, human IgG1, kappa, L234A L235A, V domains shown)
VH: B1 VH with A49S
VL: B1 VL with V44P, F87Y, P96W
B13: humanized antibody molecule HA-II-A (antibody, human IgG1, kappa, L234A L235A, V domains shown)
VH: B1 VH
VL: B1 VL with V44P, Y71F, F87Y, P96W
B14: humanized antibody molecule HA-II-D (antibody, human IgG1, kappa, L234A L235A, V domains shown)
VH: B1 VH with V93M, L117S
VL: B1 VL with K42G, A43T, P96W

Positions count from the first letter of the chain named.

For the first assay, the target named is T1, IL-11-mFc ligand protein (human, UniProt P20809 22-199).
T1 sequence (looked up): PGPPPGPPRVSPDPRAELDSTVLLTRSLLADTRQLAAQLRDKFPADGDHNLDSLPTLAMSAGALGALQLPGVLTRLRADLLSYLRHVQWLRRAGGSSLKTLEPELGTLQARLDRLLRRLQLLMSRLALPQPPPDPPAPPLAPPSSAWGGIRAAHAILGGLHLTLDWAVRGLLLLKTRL
Kind of assay: cell-based or functional assay.
In the case of B1, the “IC50 of inhibition of TIMP-1 secretion by MRC-5 cells stimulated with IL-11-mFc” value (“IC50 of inhibition of TIMP-1 secretion” below) was determined as 0.343 µg/mL.
Same read-out and setting: in the case of B2 it was 0.19 µg/mL.
Same read-out and setting: in the case of B3 it was 0.657 µg/mL; in that of B4, 0.101 µg/mL.

A further assay has as its target T1, IL-11-mFc ligand protein. Kind of assay: flow cytometry: inhibition of IL-11-mFc binding to IL-11RA on BaF/3-IL-11RA cells, goat anti-mouse IgG-FITC detection. Background: Flow cytometry measures light scatter and fluorescence of single cells or particles in a stream.
The term IC50 denotes the concentration that inhibits the measured activity by half. B5 registered an IC50 of 3.3 µg/mL.
On the same count and under the same terms, in the case of B6 it was 59.1 µg/mL.
In turn, B7 gave an IC50 of 11.1 µg/mL.
With B8, the IC50 came out at 19.1 µg/mL.

In another assay the target is T2, human IL-11 (human, UniProt P20809 22-199, limits assumed).
T2 construct: also called IL-11 antigen; IL-11 protein
T2 sequence (looked up): T1 sequence (looked up)
Kind of assay: ELISA, IL-11 coated, goat anti-human IgG Fab HRP detection. A general note: An ELISA detects its analyte on a solid surface through an enzyme-linked reagent.
Broadly, the EC50 is the midpoint of the concentration-response curve. Turning to B9, a half-maximal effect (EC50) was put at 0.0226 µg/mL.
The same measure, in the same setting: in the case of B10 it was 0.0464 µg/mL; in that of B1, 0.0252 µg/mL; in that of B11, 0.0883 µg/mL.
The molecule B2 returned an EC50 of 0.0232 µg/mL.
The same measure, in the same setting: in the case of B3 it was 0.0261 µg/mL.
For B12, a half-maximal response (EC50) required 0.0849 µg/mL.
Same read-out and setting: in the case of B4 it was 0.0204 µg/mL; in that of B13, 0.102 µg/mL; in that of B14, 0.0585 µg/mL.

Another assay concerns the target T3, IL-11-Fc antigen (human, UniProt P20809 22-199, limits assumed).
T3 construct: The construct is not described; not shown: Fc part
T3 sequence (looked up): T1 sequence (looked up)
Kind of assay: competition ELISA: IL-11-Fc coated, competitor IL-11RA-Fc (IgG4 type) at 0.5 ug/mL, anti-human IgG4-HRP detection.
In the case of B5, the IC50 amounted to 0.331 µg/mL.
On the same count and under the same terms, in the case of B6 it was 0.778 µg/mL; in that of B7, 0.378 µg/mL.
The same measure, in the same setting: in the case of B8 it was 0.421 µg/mL.

For another assay, the target named is T2, human IL-11. Kind of assay: ELISA, human IL-11 coated, goat anti-human IgG Fab HRP detection.
For the molecule B4, the EC50 worked out at 0.0106 µg/mL.

For a further assay, the target named is T4, cynomolgus monkey IL-11 (cynomolgus monkey, UniProt P20808 22-199, limits assumed).
T4 construct: Bought reagent; also called IL-11 (Cynomolgus)
T4 sequence (looked up): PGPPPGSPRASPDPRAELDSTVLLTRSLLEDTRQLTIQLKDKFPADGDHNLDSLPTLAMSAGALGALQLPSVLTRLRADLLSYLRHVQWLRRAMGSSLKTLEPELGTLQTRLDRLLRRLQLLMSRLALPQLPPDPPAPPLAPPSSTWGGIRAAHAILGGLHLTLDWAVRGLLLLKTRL
Briefly: ELISA, cynomolgus monkey IL-11 coated, goat anti-human IgG Fab HRP detection.
On to B4, for which it took 0.239 µg/mL to reach a half-maximal effect (EC50).

In another assay the target is T2, human IL-11. Briefly: cell-based or functional assay.
B1: the “IC50, reporter gene (BaF/3-GP130-STAT3-Luc cells stimulated with IL-11 protein, luciferase)” value worked out at 0.152 µg/mL.
Take B2: the “IC50, reporter gene (BaF/3-GP130-STAT3-Luc cells stimulated with IL-11 protein, luciferase)” value was found to be 0.103 µg/mL.
Still for that read-out and setting: in the case of B3 it was 0.465 µg/mL; in that of B4, 0.045 µg/mL.

Another assay deals with T1, IL-11-mFc ligand protein. Kind of assay: flow cytometry: inhibition of IL-11-mFc binding to GP130 on BaF/3-GP130 cells, goat anti-mouse IgG-FITC detection.
B1 returned an IC50 of 46.2 µg/mL.
The same measure, in the same setting: in the case of B2 it was 39.6 µg/mL; in that of B3, 128 µg/mL; in that of B4, 23.5 µg/mL.

Another assay concerns the target T5, mouse IL-11 (mouse, UniProt P47873 22-199, limits assumed).
T5 construct: Bought reagent; also called IL-11 (Mouse)
T5 sequence (looked up): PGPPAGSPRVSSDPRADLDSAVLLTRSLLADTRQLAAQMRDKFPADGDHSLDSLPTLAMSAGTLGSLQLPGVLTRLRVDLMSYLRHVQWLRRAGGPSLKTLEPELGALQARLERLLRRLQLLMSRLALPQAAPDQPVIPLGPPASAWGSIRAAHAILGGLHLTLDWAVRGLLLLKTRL
Briefly: ELISA, mouse IL-11 coated, goat anti-human IgG Fab HRP detection.
In turn, B4 displayed an EC50 of 0.0139 µg/mL.

Another assay has as its target T1, IL-11-mFc ligand protein. Briefly: cell-based or functional assay. This is another data set of the same source.
As for B5, the “IC50 of inhibition of TIMP-1 secretion” value is 0.453 µg/mL.
Turning to B6, the “IC50 of inhibition of TIMP-1 secretion” value came out at 4.6 µg/mL.
Same read-out and setting: in the case of B7 it was 0.475 µg/mL; in that of B8, 1.36 µg/mL.

For another assay, the target named is T1, IL-11-mFc ligand protein. Briefly: flow cytometry: inhibition of IL-11-mFc binding to IL-11RA on BaF/3-IL-11RA cells, goat anti-mouse IgG-FITC detection. This is another data set of the same source.
Consider B1, for which the half-maximal inhibitory concentration (IC50) is 4.87 µg/mL.
The same measure, in the same setting: in the case of B2 it was 3.58 µg/mL.
Still for that read-out and setting: in the case of B3 it was 13.8 µg/mL; in that of B4, 1.68 µg/mL.

In the next assay the target is T2, human IL-11. Briefly: ELISA, IL-11 coated, goat anti-mouse IgG-HRP detection.
The molecule B5 displayed an EC50 of 0.00341 µg/mL.
The molecule B6 displayed an EC50 of 0.00425 µg/mL.
In turn, B7 gave an EC50 of 0.00372 µg/mL.
Same read-out and setting: in the case of B8 it was 0.00379 µg/mL.

A further assay deals with T6, rat IL-11 (rat, UniProt Q99MF5 22-199, limits assumed).
T6 construct: Bought reagent; also called IL-11 (Rat)
T6 sequence (looked up): T5 sequence (looked up) with S50N, L84F, G94A, V137A, I138V
Kind of assay: ELISA, rat IL-11 coated, goat anti-human IgG Fab HRP detection.
For the molecule B4, the EC50 amounted to 0.0179 µg/mL.

For the origin of these results see patent EP4722243A1 (Beijing Dongfang Biotech Co. Ltd., dated 2026).
